The record followed here is article PMC4613514.

For the test, the target named is Keap1–mCherry (Kelch-like ECH associated protein 1 fused to mCherry) (UniProt Q9Z2X8). The test can be described thus: FRET or BRET.
Sequence of UniProt Q9Z2X8 (Q9Z2X8 whole entry, the tested form may be a part): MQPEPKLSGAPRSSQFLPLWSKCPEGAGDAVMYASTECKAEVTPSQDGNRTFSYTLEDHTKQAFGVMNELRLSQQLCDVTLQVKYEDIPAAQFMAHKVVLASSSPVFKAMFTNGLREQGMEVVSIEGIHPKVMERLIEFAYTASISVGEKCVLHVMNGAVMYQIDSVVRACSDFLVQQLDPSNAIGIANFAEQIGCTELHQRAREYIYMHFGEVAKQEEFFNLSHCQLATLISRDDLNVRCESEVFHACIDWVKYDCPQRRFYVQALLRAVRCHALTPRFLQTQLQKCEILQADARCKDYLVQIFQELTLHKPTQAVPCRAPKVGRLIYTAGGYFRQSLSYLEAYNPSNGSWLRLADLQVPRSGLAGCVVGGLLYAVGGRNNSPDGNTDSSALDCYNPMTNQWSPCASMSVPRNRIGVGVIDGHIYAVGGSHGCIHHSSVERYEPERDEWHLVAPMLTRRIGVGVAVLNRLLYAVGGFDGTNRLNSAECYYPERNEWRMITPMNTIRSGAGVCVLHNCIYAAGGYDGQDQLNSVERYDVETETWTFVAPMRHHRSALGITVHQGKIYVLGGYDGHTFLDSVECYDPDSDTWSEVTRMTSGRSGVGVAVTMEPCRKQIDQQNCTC

For “EGFP–Nrf2 double ETGE (from UniProt Q60795 1-597) (natural protein)”, the E-FRET (major peak) was determined as 21%. “EGFP–Nrf2ΔDLG (from UniProt Q60795 1-597) (natural protein)” gave an E-FRET (major peak) of 13%.
